According to paper PMC7570871, “Evaluation of a New ^177Lu-Labeled Somatostatin Analog for the Treatment of Tumors Expressing Somatostatin Receptor Subtypes 2 and 5” (Molecules, 2020):

What was measured:
[1] = type: physicochemical; settings: pH 7.4
Method: To a pre-saturated mixture of 500 µL 1-octanol and 500 µL of phosphate-buffered saline (PBS) (pH 7.4), 10 µL of 1 µM of the ^177Lu-labeled conjugates were added. The solution was vortexed for 1 h to reach the equilibrium and then centrifuged (3000 rpm) for 10 min. From each phase, 100 µL of the aliquot was removed and measured in a γ-counter. Each measurement was repeated three times. Care was taken to avoid cross-contamination between the phases. The partition coefficient was calculated as the average of the logarithmic values (n = 3) of the ratio between the radioactivity in the organic and the PBS phase.

[2] = in vivo; settings: female, mouse, total radioactivity
Method: The Veterinary Office (Department of Health) of the Cantonal Basel-Stadt approved the animal experiments (approval no. 2799) in accordance with the Swiss regulations for animal treatment. Female athymic Nude-Foxn1^nu/Foxn1^+ mice (Envigo, The Netherlands), 4–6 weeks old, were injected subcutaneously with 10^7 HEK-SST2 cells in the right shoulder and 10^7 HEK-SST5 cells in the left shoulder, freshly suspended in 100 μL sterile phosphate-buffered saline. The tumors were allowed to grow for 2–3 weeks.
(§1) At the selected time points, the mice were sacrificed and the organs of interest were collected, rinsed, blotted, weighed and counted in a γ-counter. The results are expressed as a percentage of injected activity per gram (%IA/g) obtained by extrapolation from counts of an aliquot taken from the injected solution as a standard.
as §1, with “preselected” for “selected”

[3] = in vivo; settings: mouse, 100 pmol, total radioactivity
Method: The mice were sacrificed 4 h p.i. and accumulation of the radiotracer in the tumors and in all organs of interest was quantified in a γ-counter.

[4] = athymic Nude-Foxn1^nu/Foxn1^+, 100 pmol, Pancreas uptake
[5] = athymic Nude-Foxn1^nu/Foxn1^+, 100 pmol, Spleen uptake
[6] = athymic Nude-Foxn1^nu/Foxn1^+, 100 pmol, Stomach uptake
[7] = athymic Nude-Foxn1nu/Foxn1+, 10 pmol, Adrenal uptake
[8] = athymic Nude-Foxn1nu/Foxn1+, 10 pmol, Blood uptake
[9] = athymic Nude-Foxn1nu/Foxn1+, 10 pmol, Bone uptake
[10] = athymic Nude-Foxn1nu/Foxn1+, 10 pmol, Heart uptake
[11] = athymic Nude-Foxn1nu/Foxn1+, 10 pmol, Intestine uptake
[12] = athymic Nude-Foxn1nu/Foxn1+, 10 pmol, Kidney uptake
[13] = athymic Nude-Foxn1nu/Foxn1+, 10 pmol, Liver uptake
[14] = athymic Nude-Foxn1nu/Foxn1+, 10 pmol, Lung uptake
[15] = athymic Nude-Foxn1nu/Foxn1+, 10 pmol, Muscle uptake
[16] = athymic Nude-Foxn1nu/Foxn1+, 10 pmol, Pancreas uptake
[17] = athymic Nude-Foxn1nu/Foxn1+, 10 pmol, SST2-tumor uptake
[18] = athymic Nude-Foxn1nu/Foxn1+, 10 pmol, SST5-tumor uptake
[19] = athymic Nude-Foxn1nu/Foxn1+, 10 pmol, Spleen uptake
[20] = athymic Nude-Foxn1nu/Foxn1+, 10 pmol, Stomach uptake
[21] = athymic Nude-Foxn1nu/Foxn1+, 100 pmol, Adrenal uptake
[22] = athymic Nude-Foxn1nu/Foxn1+, 100 pmol, Blood uptake
[23] = athymic Nude-Foxn1nu/Foxn1+, 100 pmol, Bone (Femur) uptake
[24] = athymic Nude-Foxn1nu/Foxn1+, 100 pmol, Femur uptake
[25] = athymic Nude-Foxn1nu/Foxn1+, 100 pmol, Heart uptake
[26] = athymic Nude-Foxn1nu/Foxn1+, 100 pmol, Intestine uptake
[27] = athymic Nude-Foxn1nu/Foxn1+, 100 pmol, Kidney uptake
[28] = athymic Nude-Foxn1nu/Foxn1+, 100 pmol, Liver uptake
[29] = athymic Nude-Foxn1nu/Foxn1+, 100 pmol, Lung uptake
[30] = athymic Nude-Foxn1nu/Foxn1+, 100 pmol, Muscle uptake
[31] = athymic Nude-Foxn1nu/Foxn1+, 100 pmol, Pancreas uptake
[32] = athymic Nude-Foxn1nu/Foxn1+, 100 pmol, SST2-tumor uptake
[33] = athymic Nude-Foxn1nu/Foxn1+, 100 pmol, SST5-tumor uptake
[34] = athymic Nude-Foxn1nu/Foxn1+, 100 pmol, Spleen uptake
[35] = athymic Nude-Foxn1nu/Foxn1+, 100 pmol, Stomach uptake

CC(C)[C@@H]1NC(=O)[C@H](CCCCN)NC(=O)[C@@H](Cc2c[nH]c3ccccc23)NC(=O)[C@H](Cc2ccc(O)c(I)c2)NC(=O)[C@@H](NC(=O)[C@@H](Cc2ccc(N)c(I)c2)NC(=O)CN2CCN(CC(=O)O)CCN(CC(=O)O)CCN(CC(=O)O)CC2)CSSC[C@@H](C(=O)N[C@H](C(N)=O)[C@@H](C)O)NC1=O [[^177Lu]Lu-DOTA-ST8950, metal not drawn]
logD [1]: -1.2 ± 0.1 | tissue uptake at 168 h ([2]; athymic Nude-Foxn1^nu/Foxn1^+, 100 pmol, Liver uptake): 0.54 ± 0.09 %ID/g | tissue uptake at 24 h [2, 4]: 1.68 ± 0.27 %ID/g | tissue uptake at 72 h [2, 4]: 0.72 ± 0.14 %ID/g | tissue uptake at 168 h [2, 4]: 0.37 ± 0.05 %ID/g | tissue uptake at 24 h [2, 5]: 0.36 ± 0.24 %ID/g | tissue uptake at 72 h [2, 5]: 0.38 ± 0.12 %ID/g | tissue uptake at 168 h [2, 5]: 0.27 ± 0.05 %ID/g | tissue uptake at 24 h [2, 6]: 2.61 ± 0.44 %ID/g | tissue uptake at 72 h [2, 6]: 1.66 ± 0.49 %ID/g | tissue uptake at 168 h [2, 6]: 0.99 ± 0.04 %ID/g | tissue uptake at 1 h [2, 7]: 6.01 ± 1.15 %ID/g | tissue uptake at 4 h [2, 7]: 5.37 ± 1.17 %ID/g | tissue uptake at 1 h [2, 8]: 1.3 ± 0.24 %ID/g | tissue uptake at 4 h [2, 8]: 0.15 ± 0.02 %ID/g | tissue uptake at 1 h [2, 9]: 1.35 ± 0.25 %ID/g | tissue uptake at 4 h [2, 9]: 1.12 ± 0.38 %ID/g | tissue uptake at 1 h [2, 10]: 0.84 ± 0.18 %ID/g | tissue uptake at 4 h [2, 10]: 0.2 ± 0.04 %ID/g | tissue uptake at 1 h [2, 11]: 3.08 ± 0.38 %ID/g | tissue uptake at 4 h [2, 11]: 2.29 ± 0.42 %ID/g | tissue uptake at 1 h [2, 12]: 11.7 ± 1.79 %ID/g | tissue uptake at 4 h [2, 12]: 10.8 ± 1.27 %ID/g | tissue uptake at 1 h [2, 13]: 2.73 ± 0.59 %ID/g | tissue uptake at 4 h [2, 13]: 2.2 ± 0.27 %ID/g | tissue uptake at 1 h [2, 14]: 7.12 ± 2.59 %ID/g | tissue uptake at 4 h [2, 14]: 3.81 ± 0.98 %ID/g | tissue uptake at 1 h [2, 15]: 0.4 ± 0.07 %ID/g | tissue uptake at 4 h [2, 15]: 0.13 ± 0.02 %ID/g | tissue uptake at 1 h [2, 16]: 5.99 ± 1.75 %ID/g | tissue uptake at 4 h [2, 16]: 3.21 ± 0.5 %ID/g | tissue uptake at 1 h [2, 17]: 12.1 ± 3.94 %ID/g | tissue uptake at 4 h [2, 17]: 10.3 ± 2.78 %ID/g | tissue uptake at 1 h [2, 18]: 1.94 ± 0.46 %ID/g | tissue uptake at 4 h [2, 18]: 1.52 ± 0.75 %ID/g | tissue uptake at 1 h [2, 19]: 1.82 ± 0.26 %ID/g | tissue uptake at 4 h [2, 19]: 0.96 ± 0.18 %ID/g | tissue uptake at 1 h [2, 20]: 9.68 ± 2.34 %ID/g | tissue uptake at 4 h [2, 20]: 6.03 ± 1.28 %ID/g | tissue uptake at 1 h [2, 21]: 4.23 ± 0.68 %ID/g | tissue uptake at 4 h [2, 21]: 5.21 ± 1.92 %ID/g | tissue uptake at 24 h [2, 21]: 3.81 ± 1.08 %ID/g | tissue uptake at 72 h [2, 21]: 2.86 ± 1.3 %ID/g | tissue uptake at 168 h [2, 21]: 1.84 ± 0.49 %ID/g | tissue uptake at 1 h [2, 22]: 0.96 ± 0.23 %ID/g | tissue uptake at 4 h [2, 22]: 0.09 ± 0.03 %ID/g | tissue uptake at 24 h [2, 22]: 0.02 %ID/g | tissue uptake at 72 h [2, 22]: 0.01 %ID/g | tissue uptake at 1 h [2, 23]: 0.74 ± 0.11 %ID/g | tissue uptake at 4 h [2, 23]: 0.49 ± 0.11 %ID/g | tissue uptake at 24 h [2, 24]: 0.3 ± 0.05 %ID/g | tissue uptake at 72 h [2, 24]: 0.19 ± 0.05 %ID/g | tissue uptake at 168 h [2, 24]: 0.11 ± 0.01 %ID/g | tissue uptake at 1 h [2, 25]: 0.69 ± 0.09 %ID/g | tissue uptake at 4 h [2, 25]: 0.17 ± 0.03 %ID/g | tissue uptake at 24 h [2, 25]: 0.08 ± 0.01 %ID/g | tissue uptake at 72 h [2, 25]: 0.06 ± 0.02 %ID/g | tissue uptake at 168 h [2, 25]: 0.04 ± 0.01 %ID/g | tissue uptake at 1 h [2, 26]: 1.95 ± 0.65 %ID/g | tissue uptake at 4 h [2, 26]: 1.14 ± 0.42 %ID/g | tissue uptake at 24 h [2, 26]: 0.51 ± 0.09 %ID/g | tissue uptake at 72 h [2, 26]: 0.28 ± 0.06 %ID/g | tissue uptake at 168 h [2, 26]: 0.12 ± 0.02 %ID/g | tissue uptake at 1 h [2, 27]: ~10 %ID/g | tissue uptake at 4 h [2, 27]: ~10 %ID/g | tissue uptake at 24 h [2, 27]: 5.99 ± 0.41 %ID/g | tissue uptake at 72 h [2, 27]: 3.2 ± 0.84 %ID/g | tissue uptake at 168 h [2, 27]: 1.42 ± 0.38 %ID/g | tissue uptake at 1 h [2, 28]: 2.6 ± 0.42 %ID/g | tissue uptake at 4 h [2, 28]: 2.19 ± 0.48 %ID/g | tissue uptake at 24 h [2, 28]: 1.23 ± 0.16 %ID/g | tissue uptake at 72 h [2, 28]: 0.85 ± 0.21 %ID/g | tissue uptake at 1 h [2, 29]: 3.9 ± 0.84 %ID/g | tissue uptake at 4 h [2, 29]: 1.69 ± 0.4 %ID/g | tissue uptake at 24 h [2, 29]: 1.16 ± 0.1 %ID/g | tissue uptake at 72 h [2, 29]: 0.46 ± 0.08 %ID/g | tissue uptake at 168 h [2, 29]: 0.23 ± 0.09 %ID/g | tissue uptake at 1 h [2, 30]: 0.3 ± 0.07 %ID/g | tissue uptake at 4 h [2, 30]: 0.1 ± 0.02 %ID/g | tissue uptake at 24 h [2, 30]: 0.06 %ID/g | tissue uptake at 72 h [2, 30]: 0.04 ± 0.01 %ID/g | tissue uptake at 168 h [2, 30]: 0.01 %ID/g | tissue uptake at 1 h [2, 31]: 6.36 ± 1.39 %ID/g | tissue uptake at 4 h [2, 31]: 4.38 ± 1.02 %ID/g | tissue uptake at 1 h [2, 32]: 14.2 ± 1.78 %ID/g | tissue uptake at 4 h [2, 32]: 15.5 ± 3.63 %ID/g | tissue uptake at 24 h [2, 32]: 9.32 ± 2.02 %ID/g | tissue uptake at 72 h [2, 32]: 4.22 ± 1.43 %ID/g | tissue uptake at 168 h [2, 32]: 0.79 ± 0.13 %ID/g | tissue uptake at 1 h [2, 33]: 1.78 ± 0.35 %ID/g | tissue uptake at 4 h [2, 33]: 1.87 ± 0.49 %ID/g | tissue uptake at 24 h [2, 33]: 0.88 ± 0.16 %ID/g | tissue uptake at 72 h [2, 33]: 0.35 ± 0.08 %ID/g | tissue uptake at 168 h [2, 33]: 0.08 ± 0.01 %ID/g | tissue uptake at 1 h [2, 34]: 1.29 ± 0.19 %ID/g | tissue uptake at 4 h [2, 34]: 0.68 ± 0.11 %ID/g | tissue uptake at 1 h [2, 35]: 5.63 ± 0.79 %ID/g | tissue uptake at 4 h [2, 35]: 4.94 ± 0.9 %ID/g | tissue uptake at 4 h ([3]; Adrenal uptake): 5.45 ± 2.26 %ID/g | tissue uptake at 4 h ([3]; Blood uptake): 0.1 ± 0.02 %ID/g | tissue uptake at 4 h ([3]; Femur uptake): 0.56 ± 0.24 %ID/g | tissue uptake at 4 h ([3]; Heart uptake): 0.18 ± 0.03 %ID/g | tissue uptake at 4 h ([3]; Intestine uptake): 1.35 ± 0.14 %ID/g | tissue uptake at 4 h ([3]; Kidney uptake): 8.96 ± 1.39 %ID/g | tissue uptake at 4 h ([3]; Liver uptake): 2.28 ± 0.2 %ID/g | tissue uptake at 4 h ([3]; Lung uptake): 2.43 ± 1.21 %ID/g | tissue uptake at 4 h ([3]; Muscle uptake): 0.15 ± 0.02 %ID/g | tissue uptake at 4 h ([3]; SST(-)-tumor uptake): 0.7 ± 0.08 %ID/g | tissue uptake at 4 h ([3]; Spleen uptake): 0.84 ± 0.06 %ID/g | tissue uptake at 4 h ([3]; Stomach uptake): 4.89 ± 0.94 %ID/g
